# Measured values from paper PMC7840056.
# Molecular target: NiuD permease subunit of the NiuBDE nickel ABC transporter, full length, fused to the T18 fragment (pUT18)
# Assay: bacterial two-hybrid (BACTH), ß-galactosidase activity
# Conditions: E. coli strain BTH101; each measurement was performed three times; parent: est. 2400; read off a plot
row,Substance,response [Miller Units]
1,SlyD wild type fused to the T25 fragment of Bordetella pertussis adenylate cyclase (pNKT25) (from UniProt O25748) I47S; Y73A; F137Y,1800

# Molecular target: NiuDΔ7, C-terminally truncated NiuD fused to the T18 fragment
# Assay: as above
# Conditions: E. coli strain BTH101; each measurement was performed three times; parent: est. 2500; read off a plot
row,Substance,response [Miller Units]
1,SlyD wild type fused to the T25 fragment of Bordetella pertussis adenylate cyclase (pNKT25) (from UniProt O25748) I47S; Y73A; F137Y,2100

# Molecular target: SlyD wild type fused to the T25 fragment of Bordetella pertussis adenylate cyclase (pNKT25) (UniProt O25748)
# Assay: as above
# Conditions: E. coli strain BTH101; each measurement was performed three times; parent: est. 2500; read off a plot
row,Substance,response [Miller Units]
1,"NiuDΔ7, C-terminally truncated NiuD fused to the T18 fragment R208S",1000
2,"NiuDΔ7, C-terminally truncated NiuD fused to the T18 fragment R208Q",95
3,"NiuDΔ7, C-terminally truncated NiuD fused to the T18 fragment W209F",1200
4,"NiuDΔ7, C-terminally truncated NiuD fused to the T18 fragment R208G; W209G; R210G",30
5,"NiuDΔ7, C-terminally truncated NiuD fused to the T18 fragment R210G",120
6,"NiuDΔ7, C-terminally truncated NiuD fused to the T18 fragment P203V",1500
7,"NiuDΔ7, C-terminally truncated NiuD fused to the T18 fragment W209G",720
